The record followed here is publication PMC5521201.

This series addresses T1, CTCF (UniProt P49711 1-727).
T1 sequence: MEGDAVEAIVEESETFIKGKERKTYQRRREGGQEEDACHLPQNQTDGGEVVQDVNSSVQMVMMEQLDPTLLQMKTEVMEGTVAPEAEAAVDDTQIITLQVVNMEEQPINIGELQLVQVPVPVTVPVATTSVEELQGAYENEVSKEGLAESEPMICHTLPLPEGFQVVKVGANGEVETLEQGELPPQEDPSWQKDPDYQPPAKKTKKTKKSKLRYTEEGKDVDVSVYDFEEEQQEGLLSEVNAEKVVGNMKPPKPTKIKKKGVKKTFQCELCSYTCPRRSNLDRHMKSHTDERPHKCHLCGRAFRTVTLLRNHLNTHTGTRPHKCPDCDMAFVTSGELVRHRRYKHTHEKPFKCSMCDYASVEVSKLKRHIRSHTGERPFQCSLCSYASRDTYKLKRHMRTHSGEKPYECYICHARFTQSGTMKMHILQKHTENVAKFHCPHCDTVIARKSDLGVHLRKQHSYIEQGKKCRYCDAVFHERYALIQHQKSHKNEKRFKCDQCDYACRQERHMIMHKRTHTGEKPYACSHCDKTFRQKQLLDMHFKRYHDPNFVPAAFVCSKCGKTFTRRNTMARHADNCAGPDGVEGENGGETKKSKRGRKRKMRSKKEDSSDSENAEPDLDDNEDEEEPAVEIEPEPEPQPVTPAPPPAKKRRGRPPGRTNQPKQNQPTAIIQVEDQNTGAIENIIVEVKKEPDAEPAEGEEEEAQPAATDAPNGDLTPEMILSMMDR
Briefly: EMSA. A general note: In EMSA bound probe runs differently from free probe, usually more slowly.

B1: CTCF WT (BZLF1 promoter CTCF site) (dsDNA)
DNA 1: TCGTCCAAATGGCCACGAGGGGGCGGGTGGCTCAGGTC
DNA 2: GACCTGAGCCACCCGCCCCCTCGTGGCCATTTGGACGA
As for B1, the binding result is listed as “binds”.
